Biological target: T1, SNX5 PX domain (UniProt Q9Y5X3 25-172)
T1 chain: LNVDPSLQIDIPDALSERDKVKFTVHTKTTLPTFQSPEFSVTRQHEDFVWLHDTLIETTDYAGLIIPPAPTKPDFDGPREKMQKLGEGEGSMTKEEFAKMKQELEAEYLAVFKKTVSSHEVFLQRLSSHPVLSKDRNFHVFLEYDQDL
Test: ITC

B1: NRP1 peptide (residues 894 to 918 of the cytosolic tail) (peptide)
peptide: not shown
B1 was tested. Which Kd did it give?
Its Kd is 17.6 µM.

From publication PMC9231623 (2022)
